For 2 molecules, Kd results are on record in publication PMC2800238.

For this data set, the target named is nsp12 (RdRp) (SARS-CoV Frankfurt-1, UniProt P0C6X7 4370-5301). In words: EMSA. On the technique in general: Mobility shift assays separate free from complexed probe on a gel.

B1: SAV557R/SAV481R primer-template duplex (dsRNA)
RNA 1: GCUAUGUGAGAUUAAGUUAU
RNA 2: UUUUUUUUUUAUAACUUAAUCUCACAUAGC
Regarding B1, the dissociation constant Kd was 130 nM.
Under GCUAUGUGAGAUUAAGUUAU (ssRNA) [SAV557R ssRNA] stands 100 nM.

The term Kd denotes the constant that tells how readily two partners part at equilibrium. A lower Kd goes with a tighter complex.
